US20190359719A1

Molecular target: c-Met (UniProt P08581)
Assay: Biacore SPR

Chain of c-Met (P08581 25-932): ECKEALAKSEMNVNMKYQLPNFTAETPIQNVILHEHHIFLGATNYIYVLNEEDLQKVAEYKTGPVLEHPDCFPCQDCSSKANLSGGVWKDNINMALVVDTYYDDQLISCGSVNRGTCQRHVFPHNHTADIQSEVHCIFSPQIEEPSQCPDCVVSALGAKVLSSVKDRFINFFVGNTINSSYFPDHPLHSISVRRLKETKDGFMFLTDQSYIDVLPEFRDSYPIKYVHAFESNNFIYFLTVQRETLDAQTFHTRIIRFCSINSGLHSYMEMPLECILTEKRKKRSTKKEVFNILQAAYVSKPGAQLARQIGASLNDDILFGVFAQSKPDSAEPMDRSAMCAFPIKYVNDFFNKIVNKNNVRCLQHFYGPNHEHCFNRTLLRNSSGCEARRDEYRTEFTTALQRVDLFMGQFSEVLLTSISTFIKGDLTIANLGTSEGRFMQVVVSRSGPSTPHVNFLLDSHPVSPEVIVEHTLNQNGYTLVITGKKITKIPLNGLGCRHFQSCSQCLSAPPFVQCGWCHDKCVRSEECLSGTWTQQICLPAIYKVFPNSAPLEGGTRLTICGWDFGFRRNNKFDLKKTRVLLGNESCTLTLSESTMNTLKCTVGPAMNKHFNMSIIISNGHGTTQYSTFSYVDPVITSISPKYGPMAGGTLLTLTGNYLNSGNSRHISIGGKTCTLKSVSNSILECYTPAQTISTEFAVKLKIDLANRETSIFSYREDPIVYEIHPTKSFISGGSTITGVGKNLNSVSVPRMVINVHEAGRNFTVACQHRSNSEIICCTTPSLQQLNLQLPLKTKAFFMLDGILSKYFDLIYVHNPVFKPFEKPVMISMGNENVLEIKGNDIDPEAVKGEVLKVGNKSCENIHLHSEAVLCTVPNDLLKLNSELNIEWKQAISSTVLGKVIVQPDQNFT

Substance: 5D5
- Ka: 5.89e+09 M⁻¹
- Kd: 0.17 nM
